Key:
[1] = substrate: CCCCCCCCCCCC(=O)OCCCCN(O)C(=O)COP(=O)(O)O; conditions: Mycobacterium tuberculosis
[2] = substrate: O=C(COP(=O)(O)O)N(O)CCCCOP(=O)(O)O; conditions: Helicobacter pylori
[3] = substrate: CCCCCCCCCCCC(=O)OCCCCN(O)C(=O)COP(=O)(O)O; conditions: Helicobacter pylori
[4] = substrate: O=C(COP(=O)(O)O)N(O)CCCCOP(=O)(O)O; conditions: Oryctolagus cuniculus
[5] = substrate: O=C(COP(=O)(O)O)N(O)CCCOP(=O)(O)O; conditions: Oryctolagus cuniculus
[6] = substrate: O=C(COP(=O)(O)O)N(O)CCCCOP(=O)(O)O; conditions: Candida albicans
[7] = substrate: CCCCCCCCCCCC(=O)OCCCCN(O)C(=O)COP(=O)(O)O; conditions: Yersinia pestis

B1: Fructose-bisphosphate aldolase (Mycobacterium tuberculosis), P9WQA3 (protein)
chain: MPIATPEVYAEMLGQAKQNSYAFPAINCTSSETVNAAIKGFADAGSDGIIQFSTGGAEFGSGLGVKDMVTGAVALAEFTHVIAAKYPVNVALHTDHCPKDKLDSYVRPLLAISAQRVSKGGNPLFQSHMWDGSAVPIDENLAIAQELLKAAAAAKIILEIEIGVVGGEEDGVANEINEKLYTSPEDFEKTIEALGAGEHGKYLLAATFGNVHGVYKPGNVKLRPDILAQGQQVAAAKLGLPADAKPFDFVFHGGSGSLKSEIEEALRYGVVKMNVDTDTQYAFTRPIAGHMFTNYDGVLKVDGEVGVKKVYDPRSYLKKAEASMSQRVVQACNDLHCAGKSLTH
Question: How did the Km [1] turn out when B1 was run?
Answer: Its Km is 0.31 µM.

B2: Fructose-bisphosphate aldolase (Helicobacter pylori (strain ATCC 700392 / 26695) (Campylobacterpylori)), P56109 (protein)
chain: MLVKGNEILLKAHKEGYGVGAFNFVNFEMLNAIFEAGNEENSPLFIQTSEGAIKYMGIDMAVGMVKTMCERYPHIPVALHLDHGTTFESCEKAVKAGFTSVMIDASHHAFEENLELTSKVVKMAHNAGVSVEAELGRLMGIEDNISVDEKDAVLVNPKEAEQFVKESQVDYLAPAIGTSHGAFKFKGEPKLDFERLQEVKRLTNIPLVLHGASAIPDNVRKSYLDAGGDLKGSKGVPFEFLQESVKGGINKVNTDTDLRIAFIAEVRKVANEDKSQFDLRKFFSPAQLALKNVVKERMKLLGSANKI
Question: B2 was tested. Which Km [2] did it give?
Answer: Its Km is 0.07 µM.

Question: What about the Km [3] of the same protein?
Answer: Its Km is 4 µM.

B3: Fructose-bisphosphate aldolase A (Oryctolagus cuniculus), P00883 (protein)
chain: MPHSHPALTPEQKKELSDIAHRIVAPGKGILAADESTGSIAKRLQSIGTENTEENRRFYRQLLLTADDRVNPCIGGVILFHETLYQKADDGRPFPQVIKSKGGVVGIKVDKGVVPLAGTNGETTTQGLDGLSERCAQYKKDGADFAKWRCVLKIGEHTPSALAIMENANVLARYASICQQNGIVPIVEPEILPDGDHDLKRCQYVTEKVLAAVYKALSDHHIYLEGTLLKPNMVTPGHACTQKYSHEEIAMATVTALRRTVPPAVTGVTFLSGGQSEEEASINLNAINKCPLLKPWALTFSYGRALQASALKAWGGKKENLKAAQEEYVKRALANSLACQGKYTPSGQAGAAASESLFISNHAY
Question: B3 was tested. Which Km [4] did it give?
Answer: The Km was 15 µM.

Question: What about the Km [5] of the same protein?
Answer: Its Km is 264 µM.

B4: Fructose-bisphosphate aldolase (Candida albicans (strain SC5314 / ATCC MYA-2876) (Yeast)), Q9URB4 (protein)
chain: MAPPAVLSKSGVIYGKDVKDLFDYAQEKGFAIPAINVTSSSTVVAALEAARDNKAPIILQTSQGGAAYFAGKGVDNKDQAASIAGSIAAAHYIRAIAPTYGIPVVLHTDHCAKKLLPWFDGMLKADEEFFAKTGTPLFSSHMLDLSEETDDENIATCAKYFERMAKMGQWLEMEIGITGGEEDGVNNEHVEKDALYTSPETVFAVYESLHKISPNFSIAAAFGNVHGVYKPGNVQLRPEILGDHQVYAKKQIGTDAKHPLYLVFHGGSGSTQEEFNTAIKNGVVKVNLDTDCQYAYLTGIRDYVTNKIEYLKAPVGNPEGADKPNKKYFDPRVWVREGEKTMSKRIAEALDIFHTKGQL
Question: How did the Km [6] turn out when B4 was run?
Answer: Its Km is 100 µM.

B5: Fructose-bisphosphate aldolase class II (Yersinia pestis), A0A380PJR2 (protein)
chain: MSKIFDFVKPGVITGDDVQKVFAVAKENNFALPAVNCVGTDSINAVLETAAKVRAPVIVQFSNGGAAFIAGKGVKTDAPQGAAILGAISGAHHVHQMAEHYGVPVILHTDHCAKKLLPWLDGLLDAGEKHFAATGKPLFSSHMIDLSEESLEENIEICSKYLTRMSKIGMTLEIELGCTGGEEDGVDNSHMDASSLYTQPQDVDYAYEKLNAISPRFTIAASFGNVHGVYKPGNVKLTPTILRDSQDYVSKKHNLPHNSLNFVFHGGSGSTAEEIKEAVSYGVVKMNIDTDTQWATWEGILNYYKKNEGYLQGQLGNPEGADKPNKKYYDPRVWLRAAQVTMITRLELAFKELNAIDVL
Question: B5 was tested. Which Km [7] did it give?
Answer: The Km was 0.234 µM.

Reference: ChEMBL document CHEMBL1275330, “Rational design, synthesis, and evaluation of new selective inhibitors of microbial class II (zinc dependent) fructose bis-phosphate aldolases” (J Med Chem, 2010)
